“Also recorded” adds a separate entry of the source.
How the values were obtained:
[1] = molecular target: T1, MOR (Mus musculus, UniProt P42866); test: Agonist-induced downregulation of MOR, radioligand binding; assay type: cell-based; settings: 10 μM, 3 hours
Excerpt: (§1) Agonist-induced downregulation can be determined by any of a variety of methods, including those described herein. For example, cell surface receptors can be measured and/or receptor proteolysis or localization in lysozomes can be determined. Alternatively, receptor downregulation can be determined indirectly by measuring desensitization of receptors after activation with an agonist. Desensitization can be determined, for example, by measuring a biological effect that is mediated by the receptor. (See FIG. 1 for examples of each of these methods.) Generally, it will be most convenient to measure cell surface receptors using a radio- or immunoassay. An exemplary radioligand binding assay useful for determining agonist-induced downregulation is described in Example 1. (See FIG. 1A and Reference 16.) Briefly, cells expressing the cell surface receptor of interest are incubated with a suitable agonist under conditions designed to provide a saturating concentration of agonist over the incubation period. After agonist treatment, the cells are recovered and assayed for radioligand binding. […]
(§2) (See 18 and 45 for the DOR and MOR expression constructs, respectively.) Cells were then chilled on ice, washed extensively and total opioid radioligand binding sites were determined for each cell line (16). […]

[2] = system: D MOR; test: Agonist-induced downregulation of D MOR, radioligand binding; assay type: cell-based; settings: 10 μM, 3 hours
Excerpt: as §1, §2

[3] = molecular target: T1, MOR; test: Colocalization of MOR with LAMP1 and LAMP2; assay type: cell-based; settings: 5 μM, 90 min
[4] = molecular target: T1, MOR; test: Membrane adenylyl cyclase assay, MOR cells; assay type: cell-based
Method: (§3) 21. Membrane adenylyl cyclase assays were performed as previously described (9).

[5] = system: D MOR; test: Membrane adenylyl cyclase assay, D MOR cells; assay type: cell-based
Method: as §3

[6] = molecular target: epitope (FLAG)-tagged delta opioid receptor (DOR-1), full length, stably expressed in HEK293 cells (UniProt P32300); test: co-immunoprecipitation: receptor immunoprecipitated, blotted for GASP1
[7] = molecular target: T2, B2AR-Ala (Homo sapiens, UniProt P07550); test: Co-immunoprecipitation with B2AR-Ala; assay type: binding; settings: cells stably expressing B2AR-Ala and GFP-cGASP1
T2 construct: expressed in transfected cells
Excerpt: The ability of GASP1 to bind to the B2AR tail in vitro was initially surprising, since the B2AR recycles efficiently after agonist-induced endocytosis and is relatively resistant to proteolysis in HEK293 cells (35). It has been shown previously that efficient recycling of the B2AR in these cells requires the actin cytoskeleton and a distinct set of protein interactions with the distal tip of the cytoplasmic tail (7). Adding a single alanine residue to the carboxyl terminus of the B2AR specifically disrupts this “recycling protein” interaction, creating a mutant B2AR (B2AR-Ala) that is sorted to lysosomes after agonist-induced endocytosis (7) (and see this study FIG. 5C) much like DOR (FIG. 1B). […] Consistent with this, GFP-cGASP1 co-immunoprecipited with B2AR-Ala (FIG. 5B) (30). Furthermore, overexpression of GFP-cGASP1 inhibited degradation of internalized B2AR-Ala (FIG. 5C), providing evidence for a functional role of the GASP1 protein interaction in lysosomal sorting of a non-opioid GPCR.
30. Assay for coimmunoprecipitation of cGASP1 with opioid receptors: Cells were grown to confluency, washed 2 times with PBS and lysed in 0.1% Triton X-100, 150 mM NaCl, 25 mM KCl, 10 mM Tris-HCl pH 7.4 containing 1 μM leupeptin, 1 μM pepstatin A, 1 μM aprotinin, 2.5 μM Pefabloc SC, and cell debris was removed by centrifugation at 10,000×g for 10 minutes at 4° C. […]

[8] = molecular target: T3, endogenous GASP1 binding to DOR (Mus musculus, UniProt P32300); test: Competition with endogenous GASP1 for DOR binding in cells (co-immunoprecipitation); assay type: cell-based; settings: overexpressed approximately 40 fold over endogenous GASP1
T3 construct: co-immunoprecipitated specifically with full length DOR but not with MOR expressed at similar levels; expressed in transfected cells; host or cells: HEK293 stably expressing DOR (GASP1 endogenous)
Method: 30. Assay for coimmunoprecipitation of cGASP1 with opioid receptors: Cells were grown to confluency, washed 2 times with PBS and lysed in 0.1% Triton X-100, 150 mM NaCl, 25 mM KCl, 10 mM Tris-HCl pH 7.4 containing 1 μM leupeptin, 1 μM pepstatin A, 1 μM aprotinin, 2.5 μM Pefabloc SC, and cell debris was removed by centrifugation at 10,000×g for 10 minutes at 4° C. An aliquot of lysate was removed for GASP1 control blot. Lysate was incubated with M2 affinity resin (Sigma) overnight. Pellets were extensively washed and incubated with PNGase (NEB) for 2 hours at 37° C. to degycosylate receptor protein. Samples were eluted in SDS sample buffer. For co-immunoprecipitation with endogenous GASP1, one fourth of eluate was separated by SDS-PAGE on a 12% gel (receptor blot), three quarters on a 7% gel (GASP1 blot). For co-immunoprecipitation with cGASP1 eluate was run on a 12% gel that was later cut and blotted separately for cGASP1 and receptor. Proteins were transferred to nitrocellulose. GASP1 blots were incubated for 2 hours with rabbit anti-GASP1 (1:4000). cGASP1 blots were incubated with rabbit anti-GFP antibodies for 2 hours (1:200) (Clonetech). Both were followed by 1 hour with horseradish peroxidase (HRP)-conjugated anti-rabbit antibody (NEB) (1:3000), and visualized with ECL plus (Amersham). […]

[9] = molecular target: T4, DOR (Mus musculus, UniProt P32300); test: Biotin protection-degradation assay, endocytosed DOR; assay type: cell-based; settings: cells overexpressing cGASP1 vs DOR alone, agonist 3 hours
T4 construct: co-immunoprecipitated specifically with full length DOR but not with MOR expressed at similar levels; expressed in transfected cells
Method: (§4) 17. Biotin protection-degradation assay for proteolysis of surface-biotinylated receptors following endocytosis: Cells were grown to 80% confluency washed 2 times with cold phosphate buffered saline (PBS) then incubated in 3 μg/ml cleavable biotin (Pierce) in PBS at 4° C. for 30 minutes with gentle agitation. Cells were washed 2 times with Tris buffered saline and placed back into medium for treatment. Cells labeled “100% biotinylated” were left on ice in PBS. Cells labeled “100% stripped” were also left on ice in PBS then stripped as described below. Cells were treated with 5 μM agonist for 30 minutes or 3 hours, washed 2 times with cold PBS and the remaining cell surface biotinylated receptors were stripped in 50 mM glutathione, 0.3 M NaCl, 75 mM NaOH, 1% fetal bovine serum at 4° C. for 30 minutes. Glutathione was quenched with a 20 minute wash of PBS with 50 mM iodoacetamide, 1% bovine serum albumin. Cells were extracted in 0.1% Triton X-100, 150 mM NaCl, 25 mM KCl, 10 mM Tris-HCl pH 7.4 containing 1 μM leupeptin, 1 μM pepstatin A, 1 μM aprotinin, 2.5 μM Pefabloc SC, and cell debris was removed by centrifugation at 10,000×g for 10 minutes at 4° C. Receptors were immunoprecipitated using M2 antibody (Sigma), rabbit anti mouse linker (Jackson Immunoresearch) and protein A sepharose (Pharmacia) overnight. […]

[10] = molecular target: epidermal growth factor (EGF) receptor (Homo sapiens, UniProt P00533); test: EGFR assay, ligand-induced downregulation of EGF receptor; assay type: cell-based; settings: EGF 30 minutes or 3 hours
Method: 32. EGFR assay: Cells expressing only endogenous GASP1 and cells overexpressing GFP-cGASP1 (>40×) were grown to 80% confluency and treated with 5 μM EGF in DMEM for the indicated times or left untreated. Cells were washed with PBS, EGF receptor was immunoprecipitated with Rabbit anti EGFR-affinity resin (Santa Cruz Biotechnology), separated by SDS page and immunoblotted with goat anti-EGFR antibodies (Santa Cruz Biotechnology), followed by HRP-conjugated anti-goat secondary (Jackson Immunoresearch) and development with ECL reagents (Amersham).

[11] = molecular target: T5, cytoplasmic tail of DOR (Mus musculus, UniProt P32300); test: GST affinity chromatography, binding to DOR cytoplasmic tail; settings: in vitro
T5 construct: GST; made in house
T5 sequence (P32300 312-371): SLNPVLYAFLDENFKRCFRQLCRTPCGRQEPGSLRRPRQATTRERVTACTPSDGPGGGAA
Method: Sequence homology to a non-mammalian protein was observed between the carboxyl-terminal regions of GASP1 and Vac8p, a yeast protein involved in late endocytic trafficking (26).
24. Affinity chromatography was carried out as previously described (25).

[12] = molecular target: T4, DOR; test: Agonist-induced downregulation of DOR, radioligand binding; assay type: cell-based; settings: 5 μM DADLE 3 hours
[13] = molecular target: T2, B2AR-Ala; test: Biotin protection-degradation assay, endocytosed B2AR-Ala; assay type: cell-based; settings: cells overexpressing cGASP1 vs B2AR-Ala alone, isoproterenol
Method: as §4

[14] = agonist 3 hours, washout, 10 μM naloxone 30 minutes

CC(C)C[C@@H](NC(=O)[C@H](Cc1ccccc1)NC(=O)CNC(=O)[C@@H](C)NC(=O)[C@@H](N)Cc1ccc(O)cc1)C(=O)O [DADLE, Tyr-D-Ala-Gly-Phe-D-Leu] was tested, and the “agonist-induced downregulation of MOR (total opioid radioligand binding sites)” value [1] was “not substantially downregulated” and the “agonist-induced downregulation of D MOR (total opioid radioligand binding sites)” value [2] was “significant downregulation”.

For C[C@@H](NC(=O)[C@@H](N)Cc1ccc(O)cc1)C(=O)NCC(=O)N(C)[C@@H](Cc1ccccc1)C(=O)NCCO [DAMGO], the “colocalization of MOR with LAMP after agonist” value [3] was “not colocalized with LAMP”, the “desensitization of MOR” value ([4]; 5 μM, 10 minute exposure) was “Rapid desensitization” and the “resensitization of MOR” value [4, 14] was “recovered their ability to mediate agonist-dependent inhibition of adenylyl cyclase”. The “desensitization of D MOR” value ([5]; 5 μM, 10 minute exposure) was “Rapid desensitization” and the “resensitization of D MOR” value [5, 14] was “neither DOR nor D MOR resensitized significantly”.

endogenous GASP1 of HEK293 cells was tested, and the percent of endogenous GASP1 immunoprecipitated with DOR [6] was < 1% and the percent of total endogenous GASP1 coimmunoprecipitated with DOR [6] was < 1%.

B1: GFP-cGASP1: GFP-tagged version of cGASP1 stably overexpressed in HEK293 cells (protein)
chain: SETEEETIFGSWFWDGKEVSEEAGPCCVSKPEDDEEMIVESWFWSRDKAIKETGTVATCESKPENEEGAIVGSWFEAEDEVDNRTDNGSNCGSRTLADEDEAIVGSWFWAGDEAHFESNPSPVFRAICRSTCSVEQEPDPSRRPQSWEEVTVQFKPGPWGRVGFPSISPFRFPKEAASLFCEMFGGKPRNMVLSPEGEDQESLLQPDQPSPEFPFQYDPSYRSVQEIREHLRAKESTEPESSSCNCIQCELKIGSEEFEELLLLMEKIRDPFIHEISKIAMGMRSASQFTRDFIRDSGVVSLIETLLNYPSSRVRTSFLENMIRMAPPYPNLNIIQTYICKVCEETLAYSVDSPEQLSGIRMIRHLTTTTDYHTLVANYMSGFLSLLATGNAKTRFHVLKMLLNLSENLFMTKELLSAEAVSEFIGLFNREETNDNIQIVLAIFENIGNNIKKETVFSDDDFNIEPLISAFHKVEKFAKELQGKTDNQNDPEGDQEN
modifications: left off: large carriers; small tags and cut ends
notes: GFP-tagged version of cGASP1 stably overexpressed in HEK293 cells
With B1 the “binding to B2AR-Ala in vivo (co-immunoprecipitation)” value [7] was “binds in vivo”, the “competition with endogenous GASP1 for binding to DOR in vivo” value [8] was “substantially reduced the amount of endogenous GASP1 recovered in DOR immunoprecipitates; also recorded: competes with endogenous GASP1 for binding to DOR in vivo” and the “stability of endocytosed DOR (post-endocytic proteolysis)” value [9] was “significantly more stable”. The “effect on downregulation of the EGF receptor” value [10] was “unaffected”.

B2: cGASP1: carboxyl-terminal fragment of the GASP1 protein, corresponding to the C-terminal 497 residues of GASP1 (protein)
chain: B1 chain
With B2 the “input recovered on washed GST-DOR” value [11] was 3-5%, the “effect on agonist-induced downregulation of DOR” value ([12]; cGASP1 overexpressed 30 fold over endogenous GASP1) was “less significantly” and the “effect on agonist-induced downregulation of DOR” value ([12]; cGASP1 overexpressed 40-fold over endogenous GASP1) was “significantly inhibited”. For the same molecule, the “stability of endocytosed B2AR-Ala (post-endocytic proteolysis)” value [13] was “significantly more stable”.
